The target of experiment [1] is endogenous retromer (Vps26, Vps29, Vps35) (human (endogenous in HeLa and HaCaT)) (UniProt Q96QK1). Briefly: proximity ligation.
Experiment [2] addresses human retromer trimer assembled from Vps26, Vps29 and GST-tagged Vps35, Q96QK1;Q9UBQ0;O75436. Briefly: pull-down on immobilized purified retromer trimer, anti-His immunoblot quantified. The conditions noted are these: read off a plot.

“HPV16 L2 double mutant (FYL/AAA and YYML/AAAA) with a carboxy-terminal 3xFLAG tag, in pseudovirus (from UniProt P03107 1-473) (natural protein)” showed a percent decrease of the PLA signal against wild-type PsV at eight hours in experiment [1] of 70%.
As for “Maltose binding protein (MBP)-L2-6His fusion protein, wild-type HPV16 L2 amino acids 434-457 F446A; Y447A; L448A; Y452A; Y453A; M454A; L455A”, the ratio to parent in experiment [2] (5 µM MBP-L2, parent: est. 0.18) is 0.17; in experiment [2] (10 µM MBP-L2, parent: est. 1.0), 0.21.
Taken in the same sequence, the figures for “Maltose binding protein (MBP)-L2-6His fusion protein, wild-type HPV16 L2 amino acids 434-457 Y452A; Y453A; M454A; L455A” were 0.29 and 0.38.
“Maltose binding protein (MBP)-L2-6His fusion protein, wild-type HPV16 L2 amino acids 434-457 F446A; Y447A; L448A”: the ratio to parent amounted to 0.2 in experiment [2] (5 µM MBP-L2, parent: est. 0.18) and 0.28 in experiment [2] (10 µM MBP-L2, parent: est. 1.0).

(Values after publication PMC4334968.)
